# Measured values reported in the supplement of paper PMC10567573.
# ± gives the standard deviation.
# Assay: protein stability index of a GFP-peptide fusion (GPS, HEK-293T) (PSI 1-6); higher = more stable
# Conditions: c terminus: a fixed tail appended
# 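Also: 24-mer peptide tiles fused after GFP, lentivirally expressed, FACS-sorted into six equal bins by GFP/DsRed ratio, decoded by Illumina sequencing, PSI is the read-weighted mean bin number.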
sequence,measurement,setting,value
CSSSNLAGNDDSFGSLPSPKELSS [DLC1],protein stability index,treatment: DMSO,4.37 ± 0.15
same,protein stability index,"treatment: MLN4924 1 uM, 8 h",4.37 ± 0.27
TVRAMTHVINQGMAMYWGTSRWSS [KCNAB2],protein stability index,treatment: DMSO,2.91 ± 0.42
same,protein stability index,"treatment: MLN4924 1 uM, 8 h",2.75 ± 0.51
AIIRTPPKSPATPKQLRLINQPLP [MAP2],protein stability index,treatment: DMSO,3.13 ± 0.19
same,protein stability index,"treatment: MLN4924 1 uM, 8 h",3.15 ± 0.21
MYASSAPPSEPVPSLEDISCNTWP [TBX5],protein stability index,treatment: DMSO,3.95 ± 0.17
same,protein stability index,"treatment: MLN4924 1 uM, 8 h",3.97 ± 0.22
GPGDSQGRKRRQTSMTDFYHSKRR [CDKN1A],protein stability index,treatment: DMSO,3.62 ± 0.42
same,protein stability index,"treatment: MLN4924 1 uM, 8 h",4.78 ± 0.19
GKGWKATRLFHDSAVTSVRILQDE [DCAF4],protein stability index,treatment: DMSO,3.39 ± 0.21
same,protein stability index,"treatment: MLN4924 1 uM, 8 h",3.67 ± 0.34
PWARGCGMFTFLSSVTAAVSGLLV [SLC2A12],protein stability index,treatment: DMSO,2.54 ± 0.3
same,protein stability index,"treatment: MLN4924 1 uM, 8 h",2.57 ± 0.21
DITDDCICDLARSIDFNKDGHIDI [PPEF2],protein stability index,treatment: DMSO,3.87 ± 0.19
same,protein stability index,"treatment: MLN4924 1 uM, 8 h",4.05 ± 0.39
FPEFCSSPSPPVEVKIEEPVSMEM [INTS3],protein stability index,treatment: DMSO,4.65 ± 0.32
same,protein stability index,"treatment: MLN4924 1 uM, 8 h",4.82 ± 0.27
TCSTRFVSGGSAGGYGGGVSCGFG [KRT13],protein stability index,treatment: DMSO,2.46 ± 0.29
same,protein stability index,"treatment: MLN4924 1 uM, 8 h",2.43 ± 0.31
GYRCFVCPVEYNNDTNSFTVDCEP [CDS2],protein stability index,treatment: DMSO,2.35 ± 0.47
same,protein stability index,"treatment: MLN4924 1 uM, 8 h",2.58 ± 0.51
MVGPLAQDPQSPMAGLRWLDSWDF [POMT2],protein stability index,treatment: DMSO,2.66 ± 0.42
same,protein stability index,"treatment: MLN4924 1 uM, 8 h",2.75 ± 0.41
GDLSGGQVLKKIAQKALDLPSSGE [HMOX1],protein stability index,treatment: DMSO,4.77 ± 0.37
same,protein stability index,"treatment: MLN4924 1 uM, 8 h",4.8 ± 0.13
VIVQIKQPRKKYVQRKSDFDQTVF [NETO1],protein stability index,treatment: DMSO,2.09 ± 0.3
same,protein stability index,"treatment: MLN4924 1 uM, 8 h",2.09 ± 0.076
ISAEGFTDIDIDTLCAVLERDTLS [BTBD1],protein stability index,treatment: DMSO,2.48 ± 0.3
same,protein stability index,"treatment: MLN4924 1 uM, 8 h",2.63 ± 0.38
IIQFVESGDDKNSNYFSMDSMEGK [TRIM29],protein stability index,treatment: DMSO,3.46 ± 0.24
same,protein stability index,"treatment: MLN4924 1 uM, 8 h",3.71 ± 0.29
AKLAADDFRTKYETELSLRQLVEA [KRT36],protein stability index,treatment: DMSO,3.73 ± 0.33
same,protein stability index,"treatment: MLN4924 1 uM, 8 h",3.78 ± 0.061
FSLEQQLDDEDDDEEDCPNPEEYN [SRPK2],protein stability index,treatment: DMSO,5.61 ± 0.27
same,protein stability index,"treatment: MLN4924 1 uM, 8 h",5.71 ± 0.13
IIGDYFSDQDPRVRTAAIKAMLQL [INTS4],protein stability index,treatment: DMSO,2.19 ± 0.28
same,protein stability index,"treatment: MLN4924 1 uM, 8 h",2.33 ± 0.2
KFADNKWSVTGKAEPAMPGRLYVH [TBX5],protein stability index,treatment: DMSO,2.53 ± 0.094
same,protein stability index,"treatment: MLN4924 1 uM, 8 h",2.61 ± 0.27
VTPFDHNIVNLLTTCSTPLLNSPP [AUP1],protein stability index,treatment: DMSO,2.42 ± 0.12
same,protein stability index,"treatment: MLN4924 1 uM, 8 h",2.48 ± 0.39
PAISITENVLHFKAQGHGAKGDNV [HACD3],protein stability index,treatment: DMSO,4.54 ± 0.095
same,protein stability index,"treatment: MLN4924 1 uM, 8 h",4.57 ± 0.37
TDQPPLVQAIFSGDPEEIRMLIHK [ANKRD44],protein stability index,treatment: DMSO,3.31 ± 0.28
same,protein stability index,"treatment: MLN4924 1 uM, 8 h",3.48 ± 0.3
NQNRAYVTLAAHFLGLGAPNCLSM [ZBED1],protein stability index,treatment: DMSO,3.07 ± 0.95
same,protein stability index,"treatment: MLN4924 1 uM, 8 h",3.08 ± 0.59
KQESTRPEKKSDQPMCEEHEEERI [TRIM55],protein stability index,treatment: DMSO,5.73 ± 0.12
same,protein stability index,"treatment: MLN4924 1 uM, 8 h",5.48 ± 0.26
LYPAVSAVWGQCQVRIRYLGERRA [SPSB2],protein stability index,treatment: DMSO,2.56 ± 0.19
same,protein stability index,"treatment: MLN4924 1 uM, 8 h",2.62 ± 0.38
TSTSSSITSSIPDTERLDDFHLSI [DVL3],protein stability index,treatment: DMSO,3.84 ± 0.27
same,protein stability index,"treatment: MLN4924 1 uM, 8 h",3.96 ± 0.23
AKAELPKYKSFNRTAMPYGGYEKA [MYOZ1],protein stability index,treatment: DMSO,3.22 ± 0.23
same,protein stability index,"treatment: MLN4924 1 uM, 8 h",3.41 ± 0.24
GFSPSYEFFAVTRFLVGMMNGGMS [SLC22A15],protein stability index,treatment: DMSO,2.54 ± 1.2
same,protein stability index,"treatment: MLN4924 1 uM, 8 h",2.28 ± 0.4
SIHYAAAYGHRQCLELVSCFVLFS [ANKRD44],protein stability index,treatment: DMSO,2.25 ± 0.44
same,protein stability index,"treatment: MLN4924 1 uM, 8 h",2.2 ± 0.52
DMELHRMSRMQSKEYPVVPRSTVR [TBX5],protein stability index,treatment: DMSO,4.35 ± 0.07
same,protein stability index,"treatment: MLN4924 1 uM, 8 h",4.33 ± 0.15
LTLQVLVAGNPQDTRLRYSFFVPR [ADAMTS4],protein stability index,treatment: DMSO,3.13 ± 0.4
same,protein stability index,"treatment: MLN4924 1 uM, 8 h",3.19 ± 0.44
DEYQYSFWDLFRSKDNMRTRIMIG [SLC2A12],protein stability index,treatment: DMSO,1.85 ± 0.38
same,protein stability index,"treatment: MLN4924 1 uM, 8 h",2.14 ± 0.38
IRLYGLQAGRLLWEQELYSQLVYS [WAS],protein stability index,treatment: DMSO,3.11 ± 0.55
same,protein stability index,"treatment: MLN4924 1 uM, 8 h",2.7 ± 0.38
WGLDQEQVFSLGDGVSGGFFGIRD [ZBED1],protein stability index,treatment: DMSO,2.91 ± 0.6
same,protein stability index,"treatment: MLN4924 1 uM, 8 h",3.17 ± 0.3
MSVILSMDNNRNLDLDSIIDEVRT [KRT71],protein stability index,treatment: DMSO,2.61 ± 0.22
same,protein stability index,"treatment: MLN4924 1 uM, 8 h",2.52 ± 0.59
DLQNLLGFTPEELHAILGVQPDTE [ETS2],protein stability index,treatment: DMSO,3.25 ± 0.21
same,protein stability index,"treatment: MLN4924 1 uM, 8 h",3.45 ± 0.29
PSVEQAADSLDFDETFLATSFLQH [FOXJ1],protein stability index,treatment: DMSO,4.43 ± 0.18
same,protein stability index,"treatment: MLN4924 1 uM, 8 h",4.41 ± 0.4
EEERAQDRIATTDDTTAMASASSS [MAGEA10],protein stability index,treatment: DMSO,5.66 ± 0.17
same,protein stability index,"treatment: MLN4924 1 uM, 8 h",5.42 ± 0.1
QKNGGGAYLVPYLVLLIIIGIPLF [SLC6A17],protein stability index,treatment: DMSO,2.37 ± 0.061
same,protein stability index,"treatment: MLN4924 1 uM, 8 h",2.83 ± 1.5
KEDAKGKSEEELAECFRIFDRNAD [TNNC2],protein stability index,treatment: DMSO,5.54 ± 0.24
same,protein stability index,"treatment: MLN4924 1 uM, 8 h",5.71 ± 0.12
PLTGDKDDEEVDTHFASQEFFSAN [ADAMTSL2],protein stability index,treatment: DMSO,5.37 ± 0.11
same,protein stability index,"treatment: MLN4924 1 uM, 8 h",5.45 ± 0.19
EGHPFKAYLELEITLSQEQIQKYT [RTN1],protein stability index,treatment: DMSO,2.33 ± 0.67
same,protein stability index,"treatment: MLN4924 1 uM, 8 h",2.13 ± 0.26
KRTAQAIEPYITNFFNQVLMLGKT [PDS5B],protein stability index,treatment: DMSO,1.95 ± 0.24
same,protein stability index,"treatment: MLN4924 1 uM, 8 h",2.29 ± 0.085
